Holding throughout (format): cell-based, human
For one assay, the system named is U2OS cells. Nature of the assay: Nuclear enlargement / re-replication in U2OS cells. Particulars: siCdt2 72 h. The procedure:
(§1) Next, we examined Cdt1 degradation after the onset of the S phase in the Cdt2^PIP-3A-expressing cells. Cyclin A is present in the S and G2 phase, when Cdt1 should be degraded. Thus, Cdt1 should be present in cells that are negative for cyclin A, and absent in cells that are positive for cyclin A ([Nishitani et al, 2006]; [Xouri et al., 2007a], [2007b]). Cdt1 degradation after the onset of the S phase is carried out by two ubiquitin ligases, CRL1^Skp2 and CRL4^Cdt2. We depleted the substrate recognition subunits, Cdt2 and/or Skp2, by siRNA, and the percentage of Cdt1 positive cells among cyclin A–positive cells was assessed by immunofluorescence. In control siRNA-transfected U2OS cells, ∼2% of cyclin A–positive cells stained positive for Cdt1. […]
(§2) Figure 8. […] The frequency of Cdt1-positive (+) cells among cyclin A–positive (+) cells was calculated (n = 3). […] (D) Cells treated with siCdt2 or control siLuc were measured for their nuclear size (n = 200 for each), and are shown in a scatter plot. […]
(§3) Double-stranded RNAs were transfected at 100 nM using Oligofectamine (Invitrogen) or HiPerFect (QIAGEN). […] For Cdt1 silencing in Fig 1A and B, unsychronized HeLa cells were transfected twice with 200 nM of Cdt1 siRNA or control luciferase siRNA using Lipofectamine 2000 with a time interval of 24 h and were analysed 48 h after the second transfection. […]

Assay [1] relates to Cdt1 degradation, U2OS cells. Put plainly: Cdt1 degradation after UV irradiation in U2OS cells. Particulars: for Cdt1 degradation after UV: siCdt2 (3′ UTR), UV 20 J/m^2. From the text: Because the poly-ubiquitination activity of Cdt2^PIP-3A was reduced, we monitored the degradation of Cdt1 after UV irradiation. Asynchronously growing control U2OS cells and cells expressing Cdt2^WT or Cdt2^PIP-3A (Fig S7) were depleted of endogenous Cdt2 using an siRNA targeted to the 3′ UTR, and irradiated with UV.
Figure 7. The Cdt2 PIP box plays an important role for rapid Cdt1 degradation after UV irradiation. (A) U2OS cells and U2OS cells stably expressing Cdt2^WT-3FLAG or Cdt2^PIP-3A-3FLAG were transfected with siCdt2 targeted to the 3′ UTR or control siLuc for 48 h, irradiated with UV (+, 20 J/m^2) or not (−), and collected at the indicated time points (min) for Western blotting. (B) The protein levels were measured and the relative amounts of Cdt1, normalized to RCC1, after UV irradiation were shown, UV (−) level set as 1.0. Error bars represent SD from three independent experiments. (C) Cells were transfected with siCdt2 or control siLuc for 72 h, irradiated with UV (+, 5 J/m^2) or not (−) (not shown), and 1h later fixed for staining with Cdt1 and cyclinA antibodies. (D) The frequency of Cdt1-positive (+) cells among the total cells in (C) was shown (%) (average of two independent experiments).
Double-stranded RNAs were transfected at 100 nM using Oligofectamine (Invitrogen) or HiPerFect (QIAGEN). Twenty-four hours after the first transfection, a second transfection was performed and cells were cultured for two more days. The following siRNAs were made by Dharmacon: Skp2; […], Cdt2_3′UTR; […]. The siRNA for siLuc, known as GL2, was used as a control siRNA. For Cdt1 silencing in Fig 1A and B, unsychronized HeLa cells were transfected twice with 200 nM of Cdt1 siRNA or control luciferase siRNA using Lipofectamine 2000 with a time interval of 24 h and were analysed 48 h after the second transfection. In synchronized MCF7 cells (Fig 1D), a single transfection with 200 nM of Cdt1 siRNA or control luciferase siRNA using Lipofectamine 2000 5 h after release from thymidine and before adding nocodazole was carried out. The Cdt1 siRNA was made by MWG: […].

In assay [2] the test system is Cdt1 degradation in S/G2, U2OS cells. Put plainly: Cdt1-positive cells among cyclin A-positive U2OS cells. Particulars: siCdt2 and/or siSkp2. The protocol: as §1, with “immunofluorescence.” for “immunofluorescence. In control siRNA-transfected U2OS cells, ∼2% of cyclin A–positive cells stained positive for Cdt1.”
as §2
For Western blotting, whole-cell lysates were prepared by lysing cell pellets directly in SDS–PAGE buffer. […] Protein levels were analysed by ImageJ software.
as §3

For the next assay, the system named is PCNA mono-ubiquitination. Nature of the assay: Mono-ubiquitination of PCNA. Particulars: in comparison with Cdt2^wt-expressing cells, Fig S7B. From the text: Figure S7. Cdt2 PIP box is important for CRL4^Cdt2 activity in U2OS cells. (A) U2OS stable cells expressing Cdt2^WT or Cdt2^PIP-3A. U2OS cells were transfected with expression vectors for Cdt2^WT-FLAG or Cdt2^PIP-3A-FLAG, and isolated stable clones were verified by immunofluorescent analysis and Western blot analysis. Frequency of expressing cells for each construct was shown (%). (B) Poly-ubiquitination assay with U2OS stable cells. U2OS cells and Cdt2^WT-3FLAG or Cdt2^PIP-3A-3FLAG expressing stable U2OS cells were treated with MG132 for 3 h or not (−), and whole-cell extracts were prepared for Western blotting. (C) Cells were transfected with siCdt2 or control siLuc for 72 h, irradiated with UV (+, 5 J/m^2) or not (−), and collected 1h later for Western blotting. Relative levels of Cdt1 were shown, UV (−) level set as 1.0 (average of two independent experiments).

On to “Cdt2: Cdt2 tagged with GFP, transiently expressed in MCF7 cells”, for which the “enlarged nuclei (re-replication) phenotype” value with U2OS cells was “rescued”. Moreover, the “Cdt1 degradation after UV” value in assay [1] is “restored Cdt1 degradation to similar kinetics to that of control siRNA-transfected U2OS cells”. Moreover, the “rescue of Cdt1 degradation in cell cycle” value in assay [2] was “fully complemented the depletion of Cdt2, and also the co-depletion of Skp2”.

B1: Cdt2^PIP-3A: Cdt2 with I709, Y712, and F713 all mutated to alanine (protein, UniProt Q9NZJ0 1-730, looked up, variant I709A Y712A F713A)
Denticleless protein homolog: MLFNSVLRQPQLGVLRNGWSSQYPLQSLLTGYQCSGNDEHTSYGETGVPVPPFGCTFSSAPNMEHVLAVANEEGFVRLYNTESQSFRKKCFKEWMAHWNAVFDLAWVPGELKLVTAAGDQTAKFWDVKAGELIGTCKGHQCSLKSVAFSKFEKAVFCTGGRDGNIMVWDTRCNKKDGFYRQVNQISGAHNTSDKQTPSKPKKKQNSKGLAPSVDFQQSVTVVLFQDENTLVSAGAVDGIIKVWDLRKNYTAYRQEPIASKSFLYPGSSTRKLGYSSLILDSTGSTLFANCTDDNIYMFNMTGLKTSPVAIFNGHQNSTFYVKSSLSPDDQFLVSGSSDEAAYIWKVSTPWQPPTVLLGHSQEVTSVCWCPSDFTKIATCSDDNTLKIWRLNRGLEEKPGGDKLSTVGWASQKKKESRPGLVTVTSSQSTPAKAPRAKCNPSNSSPSSAACAPSCAGDLPLPSNTPTFSIKTSPAKARSPINRRGSVSSVSPKPPSSFKMSIRNWVTRTPSSSPPITPPASETKIMSPRKALIPVSQKSSQAEACSESRNRVKRRLDSSCLESVKQKCVKSCNCVTELDGQVENLHLDLCCLAGNQEDLSKDSLGPTKSSKIEGAGTSISEPPSPISPYASESCGTLPLPLRPCGEGSEMVGKENSSPENKNWLLAMAAKRKAENPSPRSPSSQTPNSRRQSGKKLPSPVTITPSSMRKACTAAHRKSQEDFCGPEHSTEL
modifications: FLAG tag
notes: Cdt2 with I709, Y712, and F713 all mutated to alanine
Turning to B1, the “Cdt1 degradation after UV” value in assay [1] was “much less effective in rescuing Cdt2 depletion”. Besides, the “Cdt1 stability after low-dose UV” value in assay [1] (siCdt2, UV 5 J/m^2, 1 h post UV) is “Cdt1 remained stable 1 h post UV irradiation”. In addition, in the assay with PCNA mono-ubiquitination, the mUb-PCNA level result is listed as “decreased”. Further, the “rescue of Cdt1 degradation in cell cycle” value in assay [2] is given as “not fully rescued”.
